In the RNAGym collection of RNA variant scans (doi:10.1073/pnas.2313332121):

B1: TPR t1 (parent)
chain: GACCAAUCUGCCCUCAGAGCUCGAGAACAUCUUCGGAUGCAGAGGAGGCAGGCUUCGGUGGCGCGAUAGCGCCAACGUCCUCAACCUCCAAUGCAUCCCACCACAUGAUGAUGCCUGAAGAGCCUUGGUUUUUUG

Variants of: B1
Test: polymerase ribozyme fitness, log enrichment relative to wild type (log ratio); higher = more active; in vitro selection for triplet polymerase activity
Summary of the method: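 Libraries of mutants in each subunit of a heterodimeric triplet polymerase ribozyme were generated by PCR and transcribed. In triplicate, each went through one in vitro selection round: annealing with biotinylated primer, partner subunit and triplets; frozen incubation at −7 °C; gel excision of extended constructs; streptavidin-bead capture; RT-PCR. Fitness, taken from Illumina sequencing of input and output libraries, is the logarithm of a genotype's enrichment over wild-type enrichment, averaged across replicates with inverse-variance weights. The logarithm is base 2, and genotypes needed ≥10 input reads and ≥1 read per output to be kept.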

Variant | polymerase ribozyme fitness (log ratio)
GAACAAUCUGCCCUUAGAGCUCGAGAACAUCUUCGGAUGUAGAGGAGGCAGGCUUCGGUGGCGCGAUAGCGCCAACGUCCUCAACCUUCAAUGCAUCCCACCACAUGAUGAUGCCUGAAGAGCCUUGGUUUUUUG [C3A C15U C40U C88U] | -3.42
GAAGAAUCUACCCUCAGAGCUCGAGAACAUCUUCGGAUGCAGAGGAGGCAGGCUUCGGUGUCGCGAUAGCGCCCACGUCCUCAACCUCCAAUGCAUCCCACCACAUGAUGAUGCCUGAAGAGGCUUGGUUUUUUG [C3A C4G G10A G61U A74C C123G] | -4.94
GUCCAAUCUGCCCUCAGAGCUCGAGAACAUCUUCGGAUGCAGAGGAGGCAGGCUUCGGUGACGCGAUAGCGCCAACGUCCUCAACCUCCAAUGCAUCCCACCACAUGAUGAUGCCUGAAGAGCCUUCGUUUUUUG [A2U G61A G127C] | -1.88
GUCCAAUCUGCCCUCAGAGCUCGAGAACAUCUUCGGAUGCAGAGGAGGCAGGCUUCGGUGGCGCGAUAGCGCCAACGUCCUCAACCUCCAAUGCAUCCCACCACAUGAUGAUGCCUGAACAGCCUUGGUUUUUUA [A2U G120C G135A] | 0.456
GAACAAUCUGCCCUCAGAGCUCGAGAACAUCUUCGGAUGCAGAGGAGGCAGGCUUGGGUGACGCGAUAGCGCCAACGUCCACAACCUCCAAUGCAUCCCACCACAUGAUGAUGCCUGAAGAGCCUUGGUUCUUUG [C3A C56G G61A U81A U131C] | -4.05
GUCCAAUCUGCCCUCAGAGCUCGAGAACAUCUUCGGAUGCAGAGGAGGCAGGCUUCGGUAGCGCGAUAGCGCCAACGUCCUCAACCUCCAGUGCAUCCCACCACAUGAUGAUGCCUGAAGAGCUUUGGUUUUUUG [A2U G60A A91G C124U] | -3.61
GAACAAUCUGCCCUCAGCGCUCGAGAACAUCUUCGGAUGCAGAGGAGGCAGGCUUCGGUGGCGCGAUAGCGCCAACGUCCUCAACCUCCAAUGCAUCCCACCACAUGAUGACGCCUGAAGAGCCUUGGUCUUUUG [C3A A18C U112C U130C] | -0.927
GAACAAUCUGCCCUCAGAGCUCGAGAACAUCUUCGGAUGCAGAGGAGGCAGGGUUCGGUGGCGUGAUAGCGCCAACGUCCUCAACCUCCAAUGCAUCCCACCACAUGAUGAUGCCUGGAGAGUCUUGGUUUUUUG [C3A C53G C64U A118G C123U] | -1.11
GAACAAUCUGCCCUCAGAGCUCGAGAACAUCUUCGGAUGCAGAGGAGGCAGGCUUCGGUGGCGCGCUAGCGCCAACGUCCUCAACCUCCAAUGCAUCCCACCACAUGAUGAUGCCUGAAGAGCCUUGGUUUUUUG [C3A A66C] | -2.64
GAACAAUCUGCCCUCAGAGCUCGAGAACAUCUUCGGAUGCAGAGGAGGCAGGUUACGGUGGCGCGAUAGCGCAAACGUCCUCAACCUCCAAUGCAUCCCACCACAUGAUGAUGCCUAAAGAGCCUUGGUUUUUUG [C3A C53U U55A C73A G117A] | -4.29
GUCCAAUCUGCCCUCAGAGCUCGAGAACAUCUUCGGAUGCAGAGGAGGCAGGCCUCGGUGGCGCGAUAGCGCCAACGUCCUCAACCUCCAAUGCAUCCCACCACAUGAUGAUGCAUGAAGAGCCUUGGUUUUUUG [A2U U54C C115A] | -2.65
GUCCAAUCUGCCCUCAGAGCUCGAGAACAUCUUCGGAUGCAGAGGAGGCAGGCUUCGGUGGCGCGAUAGCUCCCACGUCCUCAACCUCCAAUGCAUCCCACCACAUGAUGAUGCCUGAAGAGCCUUGGUUUUUUG [A2U G71U A74C] | -4.54
GAACAAUAUGCCCUCAGAGCUCGAGAACAUCUUCGGAUGCAGAGGAGGCAGGCUUCGGUGGCGCGAUAGGGCCAACGUCCUCAACCUCCAAUGCAUCCCACCACAUGAUGAUGCCUGAAGAGCCUUGGUUUUUUG [C3A C8A C70G] | -3.71
GAAUAAUCUGCCCUCAGAGCUCGAGAACAUCUUCGGAUGCAGAGGAGGCAGGCUUCGGUGGCGCGAUAGCGUCAACGUCCUCAACCUCCAAUGCAUCCCACCACAUGAUGAUGCCUGAAGAGGCUUGGUUUUUUG [C3A C4U C72U C123G] | -0.302
GAACAAUCUGCACUCAGAGCUCGAGAACAUCUUCGGAUGCAGAGGAGGCAGGCUUCGAUGGCGCGAUAGCGCCAACGUCCUCCACCUCCAAUGCAUCCCACCACAUGAUGAUGCCUGAAGAGCCUUGGUUUUUUG [C3A C12A G58A A83C] | -2.19
GUCCAAUCUGCCCGCAGAGCUCGAGAACAUCUUCGGAUGCAGAGGAGGCAGGCUUCGGUGGCGCGAUAGCGCCAACGUCCUCAACCUCCAAUGCAUCCCACCACAGGAUGAUGCCUGAAAAGCGUUGGUUUUUUG [A2U U14G U106G G120A C124G] | -3.26
GAACAAUCUGCCAUCAGAGAUCGAGAACAUCUUCGGAUGCAGAGGAGGCAGGCUUCGGUGGCGCGGUAGCGCCAACGUCCUCAACCUCCAAUGCAUCCCACCACAUGAUGAUGCCUAAAGAGCCUUGGUUUUUUG [C3A C13A C20A A66G G117A] | -5.73
GAACAAUCUGCCCUCAGAGCUCGAGAACUUCUUCGGAUGCAGAGGAGGCAGGCUUCGGUGGCGCGAUAGCGCCAACGUCCUCAACCUCCAAUGCAUCCCACCACAUGAUGAUGCCUGAAGAGCCUUGGUUUUUUG [C3A A29U] | -3.36
GUCCAAUCUGCCCUCAGAGCUCGAGAACAUCUUCGGAUGCAGAGGAGGCAGGCUUCGGUGGCGCGAUAGCGCCAACGUCCUCAACCUCCAAUGCAUCCCACCACAUGAUGAUCCCUGAAGAGCCUUGGUUUUUUG [A2U G113C] | -3.73
GUCCAAUCUGCCCUCAGAGCUCGAGAACAUCUUCGGAUGCAGAGGAGGCAGGCUUCGGUGGCGCGAUAGCGCCAACGUCCUCAACCUCCAAUGCAUCCCACCACAUGAUGAUUCCUGAAGAGCCUUGGUUUUUUG [A2U G113U] | -4.15
GAACAAUAUGCGCUCAGAGCUCGAGAACAUCUUCGGAUGCAGAGGAGGCAGGCUUCGGUAGCGCGAUAGCGCCAACGUCCUCAACCUCCAAAGCAUCCCACCACAUGAUGAUGCCUGAAGAGCAUUGGUUUUUUG [C3A C8A C12G G60A U92A C124A] | -2.58

Variant | polymerase ribozyme fitness (log ratio)
GAACAAUCUGCCCUCAGAGCUCGAGAACAUCUUCGGAUGCAGAGGAGGCAGGCUUAGGUGGCGCGAUAGCGCCAACGUCCUCAACCUCAAAUGCAUCCCACCACAUGAUGAUGCUUGAAGAGCCUUGGUUUUUUG [C3A C56A C89A C115U] | -3.79
GUCCAAUCGGCCCUCAGAGCUCGAGAACAUCUUCGGAUGCAGAGGAUGCAGGCUUCGGUGGCGCGAUAGCGCCAACGUCCUCAACCUUCAAUGCAUCCCACCACAUGAUGAUACCUGAAGAGCCUUGGUUUUUUG [A2U U9G G47U C88U G113A] | -4.58
GAACAAUGUGCAUUCAGAGGUCGAGAACAUCUUCCGAUGCAGAGGAGGCAGGCUUCGGUGGCGCGAUAGGGCCAACGUCCUCAACCUCCAAUGCAUCCCACCACAUGAUGAUGCCUGGAGAGCAUUGGUUUAUUG [C3A C8G C12A C13U C20G G35C C70G A118G C124A U132A] | -6.19
GAACAAUCUGCCGUCAGAGCUCGAGAACAUCUUCGGAUGCAGAGGAGGCAGGCUUCGGUGGCGCGAUAGCGCCAACGUCCUCAACCUCUAAUGCAUCCCACCACAUGAUGAUGCCUGAAGAGCCUUGCUUUUUUG [C3A C13G C89U G128C] | -3.62
GAACAAUGUGCCCUCAGAGCUCGAGAACAUCUUCGGGUGCAGAGGAGGCAGGCUUCGGUGGCGCGAUAGCGCCAACGUCCUCAACCUCCAAUACAUCCCACCACAUGAUGAUGCCUGAAGAGCCUUGGUUUUUUG [C3A C8G A37G G93A] | -0.343
GUCCAAUCUGCCCUCAGAGCUCGAGAACAUCCUCGGAUGCAGAGGAGAGAGGCUUCGGUGGCGUGAUAGCGCCAACGUCCUCAACCUCCAAUGCAUCCCACCACAUGAUGAUGCCUGAAGAGCCUUGGUUUUUUG [A2U U32C G48A C49G C64U] | -3.23
GAACAAUCUGCCUUCAGAGCUCGAGAACAUCUUCGGAUGCAGAGGAGGCAGGCUUCGGUGGUGCGAUAGCGCCAACGUCCUCAACCUCCAAUGCAUCCCACCACAUGAUGAUUCCUGAAGAGCCUUGGUUUUUUG [C3A C13U C62U G113U] | -4.41
GAACAAUCUGUCCUCAGAGCUCGAGAACAUCUUCGGAUGCAGAGGAGGGAGGAUUCGGUAGCGCGAUAGCGCCAACGUCCUCAACCUCCAAUGCAUCCCAACACAUGAUGAUGCCUGAAGAGCCUUGGUUUUUUG [C3A C11U C49G C53A G60A C101A] | -3.22
GAACCAUCUGCCCUCAGAGCUCGAGAACAUCUUCGGAUGCAGAGGAGACAGGCUUCGGUGGCGCGAUAGCGCCAACGUCCUCAACCUCCAAUGCAUCCCAACACAUGAUGAUGCCUGAAGAACCUUGGUUUUUUG [C3A A5C G48A C101A G122A] | -1.86
GAACAAUCUGCCCUCAGAGCUCGAGAAUAUCUUCGGAUGCAGAGGAGGCAGGCUUCGGUGGCCCGAUAGCGCCAACGUCCUCAACCUCCAAUGCAUCCCACCACAUGAUGAUGCCUGAAGAGCCUUGGUUUUUUG [C3A C28U G63C] | -3.87
GAACAAUCUGGCCUCAGAGCUCGAGAACAUCUUCGGAUGCAGAGGAGUCAGGCUUCGGUGGCGCGAUAGCGCCAACGUCCUCAACCUCCAAUGCAUCCCACCACAUGAUGAUGACUGAAGAGCCUUGGUUUUUUG [C3A C11G G48U C114A] | -2.07
GAACAAUCUGCCCUCAGAGCUCGAGAACAUCUUCGGAUGCAGAGGUGGCUGGCUUCAGUGGCGCGAUAGCGCCAACGUCCUCAACCUCCAAUGCAUCCCACCACAUGAUGAUGCCUGAAGAGCCUUGGUUUUUUG [C3A A46U A50U G57A] | -4.95
GAACAAUCUGCCCUCAGAGCUCGAGAACAUCUUCGGAUGCAGAGGAGGAAGGCUUCGGUGGCGCGAUAGCGCCAUCGUCCUCAACCUCCAAUGCAUCCCACCACAUGAUGAUGCCUGAAGAGUCUUGGUUUUUUG [C3A C49A A75U C123U] | 0.0976
GAACAAUGUGCCCUCAGAGCUCGAGAACAUCUUCGGAUGCAGAGGAGGCAGGCUUCGGUGGCGCGAUAGCGCCAACGUCCUCAACCUUCCAUGCAUCCCACCACAUGAUAAUGCCUGAAGAGCCUUGGUUUAUUG [C3A C8G C88U A90C G110A U132A] | -2.77
GAACAAUCUGCCCUCAGAGCUCGAGAACAUCUUCGGAUGCAGAGGAGGCAGGGUUCGGUGGCGCGAUAGCGCCAACGUCCUCAACCUCCAAUGCAUCCCACCACAUGAUGAUGCCUGAAGAGCCUUGGUUUUUUG [C3A C53G] | -1.72
GAACAAUCUGCCCUCAGAGAUCGAGAACAUCUUCGGAUGCAGAGGAGGGCGGCUUCGGUGUCGCGAUAGCGCCAACGUCCUCAACCUCCAAUGCAUCCCACCACAUGAUGAUGCCUGAAGAGCCUUGGUUUUUUG [C3A C20A C49G A50C G61U] | -5.32
GUCCAAUCUGCCCUCAGAGCUCGAGAACAUCUUCGGAUGCAGAGGAGGCAGGCUUCGCUGGCGCGAUAGCGGCAACGUCCUCAACCUUCAAUGCAUCCCACCACAUGAUGAUGCCUGAAGAGCCUUGGUUUUUUG [A2U G58C C72G C88U] | -4.39
GAACAAUCUGCCCUCAGAGCUCGAGAACAUCUUCGGAUGCAGAGGAGGCAGGCUUCGGUGGCGCGUUAUCGCCAACGUCCUCAACCUCCAAUGCAUCCCACCACAUGAUGAUGCCUGAAGAGCCUUGGUUUUUUG [C3A A66U G69U] | -1.08
GUCCAAUCUGCCCUCAGAGCUCGAGAACAUCUUCGGAUGCAGAGGAGGCAGGCUUCGGUGGCGCGAUAGCGCCAACGUCCUCAACCUCCAAUGCAUCCCACCACAUGAUUAUGCCUGAAGAGCCUUGGUUUUUUG [A2U G110U] | -2.47
GAACAAUAUGCACUCAGAGCUCGAGAACAUCUUCGGAUGCAGAGGAGGCAGGCUUCGGUGACGCGAUAGCGCCAACGUCCUCAACCUCCAAUGCAUCCCACCACAUGAUGAUGCCUGAAGAGCCUUGGUUUUUUG [C3A C8A C12A G61A] | -1.5
GUCCAAUCUGCCCUCAGAGCUCGAGAACAUCUUCGGAUGCAGAGGAGGCAGGCUUCGGUGGCGCGAUAGCGCCAACGUCCUCAACCUCCAAUCCAUCCCACCACAUGAUGAUGCCUGAAGAGCCUUGGUUUUUUG [A2U G93C] | -3.65
